Reference: US20150344570A1 (published 2015)

T1: FcγRIIa R extracellular domain with C-terminal His tag (human, UniProt P12318 34-217)
T1 construct: extracellular domain; Soluble receptor, R131 allotype; also called FcgRIIa R; FcgRIIaR; not shown: His tag at the C terminus
T1 sequence (looked up): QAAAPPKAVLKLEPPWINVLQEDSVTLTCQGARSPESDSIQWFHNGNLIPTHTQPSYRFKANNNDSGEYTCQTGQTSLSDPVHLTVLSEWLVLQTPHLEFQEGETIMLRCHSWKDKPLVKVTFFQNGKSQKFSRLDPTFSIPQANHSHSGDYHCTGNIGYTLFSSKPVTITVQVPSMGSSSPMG

T2: FcγRIIa H extracellular domain with C-terminal His tag (human, UniProt P12318 34-217)
T2 construct: extracellular domain; Soluble receptor, H131 allotype; also called FcgRIIa H; FcgRIIaH; not shown: His tag at the C terminus
T2 sequence (looked up): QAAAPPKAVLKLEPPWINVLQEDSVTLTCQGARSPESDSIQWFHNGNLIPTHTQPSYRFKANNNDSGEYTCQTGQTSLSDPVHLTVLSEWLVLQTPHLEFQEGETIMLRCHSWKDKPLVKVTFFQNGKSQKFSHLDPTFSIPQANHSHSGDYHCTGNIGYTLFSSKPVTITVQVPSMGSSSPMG

B1: GpH7-A48/GpH7-B3-01-15Y/GpL16-k0 (antibody, human IgG1, kappa)
heavy 1: QVQLVQSGAEVKKPGASVTVSCKASGYTFTDYEMHWIRQPPGEGLEWIGAIDPKTGDTAYSESFQDRVTLTADKSTSTAYMELSSLTSEDTAVYYCTRFYSYTYWGQGTLVTVSSASTKGPSVFPLAPSSKSTSGGTAALGCLVKDYFPEPVTVSWNSGALTSGVHTFPAVLQSSGLYSLSSVVTVPSSSLGTQTYICNVNHKPSNTKVDKKVEPKSCDKTHTCPPCPAPELLGGPSVFLFPPKPKDTLMISRTPEVTCVVVDVSHEDPEVKFNWYVDGVEVHNAKTKPREEQYNSTYRVVSVLTVLHQDWLNGKEYKCKVSNKALRAPIEKTISKAKGQPREPQVYTLPPSRKELTKNQVSLTCLVKGFYPSDIAVEWESNGQPENNYKTTPPVLDSDGSFFLYSKLTVDKSRWQQGNVFSCSVMHEALHNRYTQKSLSLSP
heavy 2: not shown
light: DIVMTQSPLSLPVTPGEPASISCQASESLVHSNRNTYLHWYLQKPGQSPQLLIYKVSNRFSGVPDRFSGSGSGTDFTLKISRVEAEDVGVYYCSQNTHVPPTFGQGTKVEIERTVAAPSVFIFPPSDEQLKSGTASVVCLLNNFYPREAKVQWKVDNALQSGNSQESVTEQDSKDSTYSLSSTLTLSKADYEKHKVYACEVTHQGLSSPVTKSFNRGEC
notes: H1 P329R; H2 L234Y
B2: GpH7-A5/GpH7-HA11/GpL16-k0 (antibody, human IgG1, kappa)
heavy 1: not shown
heavy 2: QVQLVQSGAEVKKPGASVTVSCKASGYTFTDYEMHWIRQPPGEGLEWIGAIDPKTGDTAYSESFQDRVTLTADKSTSTAYMELSSLTSEDTAVYYCTRFYSYTYWGQGTLVTVSSASTKGPSVFPLAPSSKSTSGGTAALGCLVKDYFPEPVTVSWNSGALTSGVHTFPAVLQSSGLYSLSSVVTVPSSSLGTQTYICNVNHKPSNTKVDKKVEPKSCDKTHTCPPCPAPELLGGPSVFLFPPKPKDTLMISRTPEVTCVVVDVSHEDPEVKFNWYVDGVEVHNAKTKPREEQYNATYRVVSVLTVLHQDWLNGKEYKCKVSNKALRAPIEKTISKAKGQPREPQVYTLPPSRDELTKNQVSLTCLVKGFYPSDIAVEWESNGQPENNYKTTPPVLDSDGSFFLYSKLTVDKSRWQQGNVFSCSVMHEALHNHYTQESLSLSP
light: DIVMTQSPLSLPVTPGEPASISCQASESLVHSNRNTYLHWYLQKPGQSPQLLIYKVSNRFSGVPDRFSGSGSGTDFTLKISRVEAEDVGVYYCSQNTHVPPTFGQGTKVEIERTVAAPSVFIFPPSDEQLKSGTASVVCLLNNFYPREAKVQWKVDNALQSGNSQESVTEQDSKDSTYSLSSTLTLSKADYEKHKVYACEVTHQGLSSPVTKSFNRGEC
notes: H2 S298A and P329R
B3: GpH7-A5/GpH7-HA5/GpL16-k0 (antibody, human IgG1, kappa)
heavy 1: not shown
heavy 2: QVQLVQSGAEVKKPGASVTVSCKASGYTFTDYEMHWIRQPPGEGLEWIGAIDPKTGDTAYSESFQDRVTLTADKSTSTAYMELSSLTSEDTAVYYCTRFYSYTYWGQGTLVTVSSASTKGPSVFPLAPSSKSTSGGTAALGCLVKDYFPEPVTVSWNSGALTSGVHTFPAVLQSSGLYSLSSVVTVPSSSLGTQTYICNVNHKPSNTKVDKKVEPKSCDKTHTCPPCPAPEYLGGPSVFLFPPKPKDTLMISRTPEVTCVVVDVSHEDPEVKFNWYVDGVEVHNAKTKPREEQYNSTYRVVSVLTVLHQDWLNGKEYKCKVSNKALRAPIEKTISKAKGQPREPQVYTLPPSRDELTKNQVSLTCLVKGFYPSDIAVEWESNGQPENNYKTTPPVLDSDGSFFLYSKLTVDKSRWQQGNVFSCSVMHEALHNHYTQESLSLSP
light: DIVMTQSPLSLPVTPGEPASISCQASESLVHSNRNTYLHWYLQKPGQSPQLLIYKVSNRFSGVPDRFSGSGSGTDFTLKISRVEAEDVGVYYCSQNTHVPPTFGQGTKVEIERTVAAPSVFIFPPSDEQLKSGTASVVCLLNNFYPREAKVQWKVDNALQSGNSQESVTEQDSKDSTYSLSSTLTLSKADYEKHKVYACEVTHQGLSSPVTKSFNRGEC
notes: H2 L234Y and P329R
B4: GpH7-A48/GpH7-B3-15-02A/GpL16-k0 (antibody, human IgG1, kappa)
heavy 1: QVQLVQSGAEVKKPGASVTVSCKASGYTFTDYEMHWIRQPPGEGLEWIGAIDPKTGDTAYSESFQDRVTLTADKSTSTAYMELSSLTSEDTAVYYCTRFYSYTYWGQGTLVTVSSASTKGPSVFPLAPSSKSTSGGTAALGCLVKDYFPEPVTVSWNSGALTSGVHTFPAVLQSSGLYSLSSVVTVPSSSLGTQTYICNVNHKPSNTKVDKKVEPKSCDKTHTCPPCPAPELLGGPSVFLFPPKPKDTLMISRTPEVTCVVVDVSHEDPEVKFNWYVDGVEVHNAKTKPREEQYNSTYRVVSVLTVLHQDWLNGKEYKCKVSNKALRAPIEKTISKAKGQPREPQVYTLPPSRKELTKNQVSLTCLVKGFYPSDIAVEWESNGQPENNYKTTPPVLDSDGSFFLYSKLTVDKSRWQQGNVFSCSVMHEALHNRYTQKSLSLSP
heavy 2: not shown
light: DIVMTQSPLSLPVTPGEPASISCQASESLVHSNRNTYLHWYLQKPGQSPQLLIYKVSNRFSGVPDRFSGSGSGTDFTLKISRVEAEDVGVYYCSQNTHVPPTFGQGTKVEIERTVAAPSVFIFPPSDEQLKSGTASVVCLLNNFYPREAKVQWKVDNALQSGNSQESVTEQDSKDSTYSLSSTLTLSKADYEKHKVYACEVTHQGLSSPVTKSFNRGEC
notes: H1 P329R; H2 S298A
B5: GpH7-A48/GpH7-B3-03-20W/GpL16-k0 (antibody, human IgG1, kappa)
heavy 1: QVQLVQSGAEVKKPGASVTVSCKASGYTFTDYEMHWIRQPPGEGLEWIGAIDPKTGDTAYSESFQDRVTLTADKSTSTAYMELSSLTSEDTAVYYCTRFYSYTYWGQGTLVTVSSASTKGPSVFPLAPSSKSTSGGTAALGCLVKDYFPEPVTVSWNSGALTSGVHTFPAVLQSSGLYSLSSVVTVPSSSLGTQTYICNVNHKPSNTKVDKKVEPKSCDKTHTCPPCPAPELLGGPSVFLFPPKPKDTLMISRTPEVTCVVVDVSHEDPEVKFNWYVDGVEVHNAKTKPREEQYNSTYRVVSVLTVLHQDWLNGKEYKCKVSNKALRAPIEKTISKAKGQPREPQVYTLPPSRKELTKNQVSLTCLVKGFYPSDIAVEWESNGQPENNYKTTPPVLDSDGSFFLYSKLTVDKSRWQQGNVFSCSVMHEALHNRYTQKSLSLSP
heavy 2: not shown
light: DIVMTQSPLSLPVTPGEPASISCQASESLVHSNRNTYLHWYLQKPGQSPQLLIYKVSNRFSGVPDRFSGSGSGTDFTLKISRVEAEDVGVYYCSQNTHVPPTFGQGTKVEIERTVAAPSVFIFPPSDEQLKSGTASVVCLLNNFYPREAKVQWKVDNALQSGNSQESVTEQDSKDSTYSLSSTLTLSKADYEKHKVYACEVTHQGLSSPVTKSFNRGEC
notes: H1 P329R; H2 G236W
B6: GpH7-A5/GpH7-HA6/GpL16-k0 (antibody, human IgG1, kappa)
heavy 1: not shown
heavy 2: QVQLVQSGAEVKKPGASVTVSCKASGYTFTDYEMHWIRQPPGEGLEWIGAIDPKTGDTAYSESFQDRVTLTADKSTSTAYMELSSLTSEDTAVYYCTRFYSYTYWGQGTLVTVSSASTKGPSVFPLAPSSKSTSGGTAALGCLVKDYFPEPVTVSWNSGALTSGVHTFPAVLQSSGLYSLSSVVTVPSSSLGTQTYICNVNHKPSNTKVDKKVEPKSCDKTHTCPPCPAPELLWGPSVFLFPPKPKDTLMISRTPEVTCVVVDVSHEDPEVKFNWYVDGVEVHNAKTKPREEQYNSTYRVVSVLTVLHQDWLNGKEYKCKVSNKALRAPIEKTISKAKGQPREPQVYTLPPSRDELTKNQVSLTCLVKGFYPSDIAVEWESNGQPENNYKTTPPVLDSDGSFFLYSKLTVDKSRWQQGNVFSCSVMHEALHNHYTQESLSLSP
light: DIVMTQSPLSLPVTPGEPASISCQASESLVHSNRNTYLHWYLQKPGQSPQLLIYKVSNRFSGVPDRFSGSGSGTDFTLKISRVEAEDVGVYYCSQNTHVPPTFGQGTKVEIERTVAAPSVFIFPPSDEQLKSGTASVVCLLNNFYPREAKVQWKVDNALQSGNSQESVTEQDSKDSTYSLSSTLTLSKADYEKHKVYACEVTHQGLSSPVTKSFNRGEC
notes: H2 G236W and P329R
B7: GpH7-Kn033/GpH7-Hl033/GpL16-k0 (antibody, human IgG1, kappa)
heavy 1: not shown
heavy 2: not shown
light: DIVMTQSPLSLPVTPGEPASISCQASESLVHSNRNTYLHWYLQKPGQSPQLLIYKVSNRFSGVPDRFSGSGSGTDFTLKISRVEAEDVGVYYCSQNTHVPPTFGQGTKVEIERTVAAPSVFIFPPSDEQLKSGTASVVCLLNNFYPREAKVQWKVDNALQSGNSQESVTEQDSKDSTYSLSSTLTLSKADYEKHKVYACEVTHQGLSSPVTKSFNRGEC
notes: Anti-glypican-3 IgG1 (G1d, C-terminal Gly-Lys removed) with knobs-into-holes alterations only; also called Kn033/Hl033

Key:
[1] = target: FcγRIIIa extracellular domain with C-terminal His tag (human, UniProt P08637 17-208); experiment: SPR (Biacore), relative binding activity; GpH7-A5/GpH7-B3/GpL16-k0 = 100
Sequence of FcγRIIIa extracellular domain with C-terminal His tag (P08637 17-208): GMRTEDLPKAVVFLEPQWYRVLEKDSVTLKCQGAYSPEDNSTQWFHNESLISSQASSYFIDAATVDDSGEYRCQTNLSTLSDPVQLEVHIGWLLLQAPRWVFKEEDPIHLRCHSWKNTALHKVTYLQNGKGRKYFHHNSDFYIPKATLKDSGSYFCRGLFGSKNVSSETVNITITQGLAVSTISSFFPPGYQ

[2] = target: T1, FcγRIIa R extracellular domain with …; experiment: SPR (Biacore); ratio KD for FcγRIIb / KD for FcγRIIa R
Procedure: (§1) These antibodies were assessed for the binding activity to each FcγR according to the method described in Reference Example 2.
(§2) Analysis of interaction between objective antibody and the FcγR was carried out using Biacore T100 (GE Healthcare). HBS-EP+ (GE Healthcare) was used as the running buffer, and the measurement temperature was set to 25° C. Chips produced by immobilizing the antigen peptide by the amine coupling method to a Series S Sencor Chip CM5 (GE Healthcare), or alternatively, chips produced by allowing preliminarily biotinylated antigen peptides to interact with and immobilize onto a Series S Sensor Chip SA (certified) (GE Healthcare) were used. Antibodies of interest were captured onto an antigen peptide-immobilized chip, and allowed to interact to each FcγR diluted with running buffer. To regenerate and repeatedly use the chip, the antibodies captured on the chip were washed off by reacting 10 mM glycine-HCl, pH 1.5.

[3] = target: T2, FcγRIIa H extracellular domain with …; experiment: SPR (Biacore); ratio KD for FcγRIIb / KD for FcγRIIa H
Procedure: as §1, §2

Binder	FcγRIIIa BINDING ACTIVITY [1] [%]	A/I ratio [2]	A/I ratio [3]
B1	11	–	–
B2	84	–	–
B3	60	–	–
B4	47	–	–
B5	13	–	–
B6	56	–	–
B7	–	4.9	6.2
